Results from IntAct's records for PubMed 17681130.

B1: Protein BRASSINAZOLE-RESISTANT 1 (Arabidopsis thaliana (Mouse-ear cress)), Q8S307 (parent)
chain: MTSDGATSTSAAAAAAAAAAARRKPSWRERENNRRRERRRRAVAAKIYTGLRAQGDYNLPKHCDNNEVLKALCVEAGWVVEEDGTTYRKGCKPLPGEIAGTSSRVTPYSSQNQSPLSSAFQSPIPSYQVSPSSSSFPSPSRGEPNNNMSSTFFPFLRNGGIPSSLPSLRISNSCPVTPPVSSPTSKNPKPLPNWESIAKQSMAIAKQSMASFNYPFYAVSAPASPTHRHQFHTPATIPECDESDSSTVDSGHWISFQKFAQQQPFSASMVPTSPTFNLVKPAPQQMSPNTAAFQEIGQSSEFKFENSQVKPWEGERIHDVGMEDLELTLGNGKARG
partner: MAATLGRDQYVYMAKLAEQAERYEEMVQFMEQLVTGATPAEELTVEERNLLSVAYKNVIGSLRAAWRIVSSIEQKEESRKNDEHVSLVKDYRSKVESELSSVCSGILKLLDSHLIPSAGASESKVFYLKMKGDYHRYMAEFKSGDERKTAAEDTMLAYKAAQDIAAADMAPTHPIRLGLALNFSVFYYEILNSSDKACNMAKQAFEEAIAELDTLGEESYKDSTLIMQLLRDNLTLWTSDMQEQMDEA

Variants of: B1
Conditions: with 14336_arath GRF6, P48349

effect of a mutation on the interaction	Variant
decreasing interaction	MTSDGATSTSAAAAAAAAAAARRKPSWRERENNRRRERRRRAVAAKIYTGLRAQGDYNLPKHCDNNEVLKALCVEAGWVVEEDGTTYRKGCKPLPGEIAGTSSRVTPYSSQNQSPLSSAFQSPIPSYQVSPSSSSFPSPSRGEPNNNMSSTFFPFLRNGGIPSSLPSLRISNACPVTPPVSSPTSKNPKPLPNWESIAKQSMAIAKQSMASFNYPFYAVSAPASPTHRHQFHTPATIPECDESDSSTVDSGHWISFQKFAQQQPFSASMVPTSPTFNLVKPAPQQMSPNTAAFQEIGQSSEFKFENSQVKPWEGERIHDVGMEDLELTLGNGKARG [S173A]
